Where two headings read alike, the source gives them in different places.
Legend:
[1] = target: UspA2 on the surface of M. catarrhalis (clinical isolates BBH18 and RH4) (Moraxella catarrhalis); assay: flow cytometry on M. catarrhalis RH4 ΔuspA1 (UspA2 left on the surface) incubated with C3met: rabbit anti-C3d pAb + FITC anti-rabbit pAb; same column: wild type mfi 22.1, Δmid mfi 23.4 (both carry UspA1 and UspA2), ΔuspA1/A2 mfi 0.3
[2] = target: UspA1 on the surface of M. catarrhalis (clinical isolates BBH18 and RH4) (Moraxella catarrhalis); assay: flow cytometry on M. catarrhalis RH4 ΔuspA2 (UspA1 left on the surface) incubated with C3met: rabbit anti-C3d pAb + FITC anti-rabbit pAb; same column: wild type mfi 22.1, Δmid mfi 23.4 (both carry UspA1 and UspA2), ΔuspA1/A2 mfi 0.3
[3] = target: UspA1 on the surface of M. catarrhalis (clinical isolates BBH18 and RH4) (Moraxella catarrhalis); assay: flow cytometry on M. catarrhalis RH4 ΔuspA2 (UspA1 left on the surface) incubated with EDTA-treated normal human serum: rabbit anti-C3d pAb + FITC anti-rabbit pAb; same column: wild type mfi 5.4, Δmid mfi 5.7 (both carry UspA1 and UspA2), ΔuspA1/A2 mfi 0.8
[4] = target: UspA2 on the surface of M. catarrhalis (clinical isolates BBH18 and RH4) (Moraxella catarrhalis); assay: flow cytometry on M. catarrhalis RH4 ΔuspA1 (UspA2 left on the surface) incubated with EDTA-treated normal human serum: rabbit anti-C3d pAb + FITC anti-rabbit pAb; same column: wild type mfi 5.4, Δmid mfi 5.7 (both carry UspA1 and UspA2), ΔuspA1/A2 mfi 0.8
[5] = target: T1, Engelbreth-Holm-Swarm mouse sarcoma laminin (Sigma) (mouse, UniProt P19137 25-3083; P02469 22-1786; P02468 34-1607); assay: ELISA: 40 nM protein coated, laminin 20 µg/ml, rabbit anti-laminin pAb + HRP anti-rabbit pAb
T1 construct: also called soluble laminin

[6] = target: T2, fibronectin (Sigma), soluble (UniProt P02751 32-2296); assay: competition, flow cytometry: fibronectin pre-incubated with the UspA1 fragment, then M. catarrhalis added; fibronectin left bound to the bacteria detected with anti-fibronectin pAb
T2 construct: also called soluble fibronectin; 125I-labeled fibronectin
T2 sequence (P02751 other isoform, or with tags, fused parts or gaps limits assumed): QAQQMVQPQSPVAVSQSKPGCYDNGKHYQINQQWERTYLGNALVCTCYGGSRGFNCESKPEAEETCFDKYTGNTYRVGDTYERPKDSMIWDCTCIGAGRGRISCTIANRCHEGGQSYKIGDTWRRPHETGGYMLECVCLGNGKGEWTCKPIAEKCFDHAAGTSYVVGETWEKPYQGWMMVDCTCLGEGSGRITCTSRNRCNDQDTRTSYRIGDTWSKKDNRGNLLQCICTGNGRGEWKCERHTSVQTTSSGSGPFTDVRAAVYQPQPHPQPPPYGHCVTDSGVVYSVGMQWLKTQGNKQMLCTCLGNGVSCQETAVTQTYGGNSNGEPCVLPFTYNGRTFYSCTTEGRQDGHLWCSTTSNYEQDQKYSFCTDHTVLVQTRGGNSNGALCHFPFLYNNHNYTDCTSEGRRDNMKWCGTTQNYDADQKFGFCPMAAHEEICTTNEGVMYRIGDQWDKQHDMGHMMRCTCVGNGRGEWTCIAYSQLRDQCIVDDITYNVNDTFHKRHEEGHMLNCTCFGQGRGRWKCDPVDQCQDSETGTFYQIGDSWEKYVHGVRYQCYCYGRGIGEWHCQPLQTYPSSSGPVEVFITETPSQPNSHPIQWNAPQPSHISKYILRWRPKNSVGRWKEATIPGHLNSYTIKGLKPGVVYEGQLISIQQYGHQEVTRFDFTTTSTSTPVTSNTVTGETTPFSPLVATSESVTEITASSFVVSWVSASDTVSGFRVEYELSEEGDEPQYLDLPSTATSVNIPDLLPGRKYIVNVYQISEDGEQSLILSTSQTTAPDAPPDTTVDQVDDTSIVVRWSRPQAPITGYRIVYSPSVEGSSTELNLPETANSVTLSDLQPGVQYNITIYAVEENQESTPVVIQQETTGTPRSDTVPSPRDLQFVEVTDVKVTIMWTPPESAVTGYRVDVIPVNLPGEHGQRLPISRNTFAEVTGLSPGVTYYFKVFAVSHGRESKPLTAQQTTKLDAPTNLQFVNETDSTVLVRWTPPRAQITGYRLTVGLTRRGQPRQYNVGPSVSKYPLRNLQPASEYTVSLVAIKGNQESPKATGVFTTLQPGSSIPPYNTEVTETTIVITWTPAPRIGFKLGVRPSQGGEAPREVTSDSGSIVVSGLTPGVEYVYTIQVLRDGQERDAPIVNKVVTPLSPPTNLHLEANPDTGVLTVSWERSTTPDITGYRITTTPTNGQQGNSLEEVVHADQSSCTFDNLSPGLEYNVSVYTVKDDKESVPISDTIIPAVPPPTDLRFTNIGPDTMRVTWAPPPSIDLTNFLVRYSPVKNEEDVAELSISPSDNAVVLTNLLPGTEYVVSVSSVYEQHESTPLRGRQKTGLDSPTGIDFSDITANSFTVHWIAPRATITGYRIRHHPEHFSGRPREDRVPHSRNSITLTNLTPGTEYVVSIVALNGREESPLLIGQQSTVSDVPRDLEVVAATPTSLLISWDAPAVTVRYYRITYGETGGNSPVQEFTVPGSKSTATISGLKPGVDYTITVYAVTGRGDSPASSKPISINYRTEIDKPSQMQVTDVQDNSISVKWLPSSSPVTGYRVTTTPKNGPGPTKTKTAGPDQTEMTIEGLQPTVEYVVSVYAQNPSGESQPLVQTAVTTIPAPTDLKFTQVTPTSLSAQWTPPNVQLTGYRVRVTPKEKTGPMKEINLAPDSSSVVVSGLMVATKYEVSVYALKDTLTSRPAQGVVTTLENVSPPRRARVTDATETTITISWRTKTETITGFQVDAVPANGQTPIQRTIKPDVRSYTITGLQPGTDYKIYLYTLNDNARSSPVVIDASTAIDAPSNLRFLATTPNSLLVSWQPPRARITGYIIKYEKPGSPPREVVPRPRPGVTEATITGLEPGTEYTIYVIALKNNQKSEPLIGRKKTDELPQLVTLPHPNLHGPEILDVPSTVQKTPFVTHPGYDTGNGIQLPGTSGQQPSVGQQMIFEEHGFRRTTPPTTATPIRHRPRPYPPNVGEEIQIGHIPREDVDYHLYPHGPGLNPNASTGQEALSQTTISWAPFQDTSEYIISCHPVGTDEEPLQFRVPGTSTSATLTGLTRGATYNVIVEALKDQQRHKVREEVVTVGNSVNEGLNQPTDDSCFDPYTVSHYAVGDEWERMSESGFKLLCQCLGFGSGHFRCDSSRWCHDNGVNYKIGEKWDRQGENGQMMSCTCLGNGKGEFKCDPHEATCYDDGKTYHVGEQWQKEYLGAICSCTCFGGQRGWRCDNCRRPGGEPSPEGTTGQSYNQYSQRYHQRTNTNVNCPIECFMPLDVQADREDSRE

[7] = target: T1, Engelbreth-Holm-Swarm mouse sarcoma …; assay: ELISA: 40 nM protein coated, laminin 20 µg/ml, rabbit anti-laminin pAb + HRP anti-rabbit pAb; remark: listed apart in the source
[8] = target: T1, Engelbreth-Holm-Swarm mouse sarcoma …; assay: ELISA: 40 nM UspA2 30-539 coated, soluble laminin titrated in three-fold steps 0.03-60 µg/ml, rabbit anti-laminin pAb + HRP anti-rabbit pAb
[9] = target: T3, methylamine-treated C3 (C3met) (human, UniProt P01024 23-667; P01024 672-1663); assay: SPR (Biacore 2000), UspA protein amine-coupled on CM5 chip, C3met injected, steady state affinity model; UspA2^30-539 on the chip
T3 construct: mature; also called C3b-like molecule; [125I]-C3met
T3 sequence (P01024 23-667 limits assumed, chain 1 of 2): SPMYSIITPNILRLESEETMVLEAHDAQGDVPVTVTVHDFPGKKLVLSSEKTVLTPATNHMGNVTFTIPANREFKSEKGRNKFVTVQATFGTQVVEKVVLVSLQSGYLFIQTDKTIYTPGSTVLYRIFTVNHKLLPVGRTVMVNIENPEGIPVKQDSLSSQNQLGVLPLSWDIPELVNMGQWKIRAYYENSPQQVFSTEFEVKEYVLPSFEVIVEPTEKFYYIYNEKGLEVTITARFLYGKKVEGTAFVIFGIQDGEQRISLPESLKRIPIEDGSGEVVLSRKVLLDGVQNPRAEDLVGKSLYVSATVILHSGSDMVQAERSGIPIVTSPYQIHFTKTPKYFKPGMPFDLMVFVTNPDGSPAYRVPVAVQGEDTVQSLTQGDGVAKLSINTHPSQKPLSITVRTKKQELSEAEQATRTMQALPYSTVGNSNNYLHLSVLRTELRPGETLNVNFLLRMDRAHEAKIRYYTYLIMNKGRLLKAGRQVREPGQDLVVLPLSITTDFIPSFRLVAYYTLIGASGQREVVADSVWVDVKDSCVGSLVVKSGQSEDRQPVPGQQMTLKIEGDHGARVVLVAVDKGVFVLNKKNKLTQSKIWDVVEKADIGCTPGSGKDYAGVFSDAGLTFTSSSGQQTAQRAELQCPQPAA
T3 sequence (P01024 672-1663 limits assumed, chain 2 of 2): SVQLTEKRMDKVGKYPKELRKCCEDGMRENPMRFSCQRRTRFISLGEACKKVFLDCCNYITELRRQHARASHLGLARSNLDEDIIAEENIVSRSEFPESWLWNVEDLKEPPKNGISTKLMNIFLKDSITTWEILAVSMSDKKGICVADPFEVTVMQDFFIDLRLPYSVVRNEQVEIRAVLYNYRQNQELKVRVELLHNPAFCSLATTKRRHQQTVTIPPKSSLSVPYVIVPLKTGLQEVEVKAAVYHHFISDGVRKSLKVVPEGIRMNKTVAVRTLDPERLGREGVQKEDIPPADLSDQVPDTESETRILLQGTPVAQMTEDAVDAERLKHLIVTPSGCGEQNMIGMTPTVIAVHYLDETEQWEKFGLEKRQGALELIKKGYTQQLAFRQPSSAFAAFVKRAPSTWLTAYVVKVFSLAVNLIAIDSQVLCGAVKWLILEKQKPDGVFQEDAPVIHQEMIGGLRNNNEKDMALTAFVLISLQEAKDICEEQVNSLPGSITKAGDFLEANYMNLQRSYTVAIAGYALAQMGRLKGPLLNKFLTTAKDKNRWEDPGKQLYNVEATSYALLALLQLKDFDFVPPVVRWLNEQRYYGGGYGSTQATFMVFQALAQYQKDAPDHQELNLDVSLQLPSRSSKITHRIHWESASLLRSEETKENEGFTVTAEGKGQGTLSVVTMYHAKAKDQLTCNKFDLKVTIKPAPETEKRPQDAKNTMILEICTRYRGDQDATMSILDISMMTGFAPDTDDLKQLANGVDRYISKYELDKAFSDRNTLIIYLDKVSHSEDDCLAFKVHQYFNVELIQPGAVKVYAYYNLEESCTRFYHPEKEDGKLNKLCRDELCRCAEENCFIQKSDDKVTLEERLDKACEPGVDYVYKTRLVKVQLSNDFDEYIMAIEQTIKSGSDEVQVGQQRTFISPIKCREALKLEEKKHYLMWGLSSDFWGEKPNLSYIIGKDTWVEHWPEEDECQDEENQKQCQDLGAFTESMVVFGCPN

[10] = target: T2, fibronectin (Sigma), soluble; assay: ELISA: 40 nM fragment coated, fibronectin 80 µg/ml, rabbit anti-fibronectin pAb + HRP anti-rabbit pAb
[11] = target: T2, fibronectin (Sigma), soluble; assay: ELISA: 40 nM fragment coated, fibronectin 120 µg/ml, rabbit anti-fibronectin pAb + HRP anti-rabbit pAb
[12] = target: T1, Engelbreth-Holm-Swarm mouse sarcoma …; assay: ELISA: 40 nM protein coated, laminin 20 µg/ml, rabbit anti-laminin pAb + HRP anti-rabbit pAb; remark: listed apart in the source
[13] = target: T1, Engelbreth-Holm-Swarm mouse sarcoma …; assay: as above; remark: listed apart in the source
[14] = target: T3, methylamine-treated C3 (C3met); assay: ELISA: 40 nM protein coated, C3met in solution, goat anti-human C3 pAb + HRP anti-goat pAb, background subtracted

In the case of “methylamine-treated C3 (C3met) (from UniProt P01024 23-667; P01024 672-1663)”, the mfi [1] is reported as 14.9 and the mfi [2] is reported as 2.7.

Work on “complement C3 in normal human serum (from UniProt P01024 23-667; P01024 672-1663)” yielded a mfi [3] of 1.4 and a mfi [4] of 3.9.

B1: recombinant UspA1^50-321 (other)
chain: KVGKATNKISGGDNNTANGTYLTIGGGDYNKTKGRYSTIGGGLFNEATNEYSTIGSGGYNKAKGRYSTIGGGGYNEATNQYSTIGGGDNNTAKGRYSTIGGGGYNEATIENSTVGGGGYNQAKGRNSTVAGGYNNEATGTDSTIAGGRKNQATGKGSFAAGIDNKANADNAVALGNKNTIEGENSVAIGSNNTVKKGQQNVFILGSNTDTTNAQNGSVLLGHNTAGKAATIVNSAEVGGLSLTGFAGASKTGNGTVSVGKKGKERQIVHVGA
B1: no binding [5]; no binding [6].

B2: recombinant UspA2^165-318 (other)
chain: KDAIAKNNESIEDLYDFGHEVAESIGEIHAHNEAQNETLKGLITNSIENTNNITKNKADIQALENNVVEELFNLSGRLIDQKADIDNNINNIYELAQQQDQHSSDIKTLKKNVEEGLLELSDHIIDQKTDIAQNQANIQDLATYNELQDQYAQK
notes: also called UspA2^165-316; UspA2^155-318 (misprints)
B2: no binding [7].

B3: recombinant UspA1^680-770 (other)
chain: KAINQELEGFAAHADVQDKQILQNQADITTNKTAIEQNINRTVANGFEIEKNKAGIATNKQELILQNDRLNRINETNNHQDQKIDQLGYAL
B3: no binding [5]; no binding [6].

B4: recombinant UspA2^30-539 (M. catarrhalis Bc5) (other)
chain: QAKNDITLEDLPYLIKKIDQNELEADIGDITALEKYLALSQYGNILALEELNKALEELDEDVGWNQNDIANLEDDVETLTKNQNAFAEQGEAIKEDLQGLADFVEGQEGKILQNETSIKKNTQRNLVNGFEIEKNKDAIAKNNESIEDLYDFGHEVAESIGEIHAHNEAQNETLKGLITNSIENTNNITKNKADIQALENNVVEELFNLSGRLIDQKADIDNNINNIYELAQQQDQHSSDIKTLKKNVEEGLLELSDHIIDQKTDIAQNQANIQDLATYNELQDQYAQKQTEAIDALNKASSENTQNIEDLAAYNELQDAYAKQQTEAIDALNKASSENTQNIEDLAAYNELQDAYAKQQAEAIDALNKASSENTQNIAKNQADIANNITNLYELAQQQDKHRSDIKTLAKTSAANTDRIAKNKADDDASFETLTKNQNTLIEKDKEHDKLITANKTAIDANKASADTKFAATADAFTKNGNAITKNAKSITDLGTKVDGFDSRVTALDT
notes: also called UspA^230-539 [sic]
For B4, the “EC50 (read off the curve)” value [8] was roughly 3 µg/mL and the Kd [9] was 3000 nM.

B5: recombinant UspA1^50-197 (other)
chain: KVGKATNKISGGDNNTANGTYLTIGGGDYNKTKGRYSTIGGGLFNEATNEYSTIGSGGYNKAKGRYSTIGGGGYNEATNQYSTIGGGDNNTAKGRYSTIGGGGYNEATIENSTVGGGGYNQAKGRNSTVAGGYNNEATGTDSTIAGGR
B5: no binding [10]; no binding [5].

B6: recombinant UspA1^557-704 (other)
chain: NENKDGIAKNQADIQLHDKKITNLGILHSMVARAVGNNTQGVATNKADIAKNQADIANNIKNIYELAQQQDQHSSDIKTLAKVSAANTDRIAKNKAEADASFETLTKNQNTLIEQGEALVEQNKAINQELEGFAAHADVQDKQILQNQ
B6: no binding [5]; no binding [6].

B7: recombinant UspA2^101-318 (other)
chain: LEDDVETLTKNQNAFAEQGEAIKEDLQGLADFVEGQEGKILQNETSIKKNTQRNLVNGFEIEKNKDAIAKNNESIEDLYDFGHEVAESIGEIHAHNEAQNETLKGLITNSIENTNNITKNKADIQALENNVVEELFNLSGRLIDQKADIDNNINNIYELAQQQDQHSSDIKTLKKNVEEGLLELSDHIIDQKTDIAQNQANIQDLATYNELQDQYAQK
B7: no binding [7].

B8: recombinant UspA1^433-580 (other)
chain: KTLKNNVEEGLLDLSGRLIDQKADLTKDIKALESNVEEGLLDLSGRLIDQKADIAKNQADIAQNQTDIQDLAAYNELQDAYAKQQTEAIDALNKASSANTDRIATAELGIAENKKDAQIAKAQANENKDGIAKNQADIQLHDKKITNL
B8: no binding [5]; no binding [6].

B9: UspA1 454-770 (other)
recombinant truncated protein: KADLTKDIKALESNVEEGLLDLSGRLIDQKADIAKNQADIAQNQTDIQDLAAYNELQDAYAKQQTEAIDALNKASSANTDRIATAELGIAENKKDAQIAKAQANENKDGIAKNQADIQLHDKKITNLGILHSMVARAVGNNTQGVATNKADIAKNQADIANNIKNIYELAQQQDQHSSDIKTLAKVSAANTDRIAKNKAEADASFETLTKNQNTLIEQGEALVEQNKAINQELEGFAAHADVQDKQILQNQADITTNKTAIEQNINRTVANGFEIEKNKAGIATNKQELILQNDRLNRINETNNHQDQKIDQLGYAL
B9: no binding [5].

B10: recombinant UspA2^30-177 (other)
chain: QAKNDITLEDLPYLIKKIDQNELEADIGDITALEKYLALSQYGNILALEELNKALEELDEDVGWNQNDIANLEDDVETLTKNQNAFAEQGEAIKEDLQGLADFVEGQEGKILQNETSIKKNTQRNLVNGFEIEKNKDAIAKNNESIED
B10: no binding [11]; binds [12].

B11: recombinant UspA1^50-491 (other)
chain: KVGKATNKISGGDNNTANGTYLTIGGGDYNKTKGRYSTIGGGLFNEATNEYSTIGSGGYNKAKGRYSTIGGGGYNEATNQYSTIGGGDNNTAKGRYSTIGGGGYNEATIENSTVGGGGYNQAKGRNSTVAGGYNNEATGTDSTIAGGRKNQATGKGSFAAGIDNKANADNAVALGNKNTIEGENSVAIGSNNTVKKGQQNVFILGSNTDTTNAQNGSVLLGHNTAGKAATIVNSAEVGGLSLTGFAGASKTGNGTVSVGKKGKERQIVHVGAGEISDTSTDAVNGSQLHVLATVVAQNKADIKDLDDEVGLLGEEINSLEGEIFNNQDAIAKNQADIKTLESNVEEGLLDLSGRLLDQKADIDNNINNIYELAQQQDQHSSDIKTLKNNVEEGLLDLSGRLIDQKADLTKDIKALESNVEEGLLDLSGRLIDQKADIAKNQA
notes: also called N-terminal half of UspA1
B11: binds [13].

B12: UspA2 446-539 (other)
recombinant truncated protein: TDRIAKNKADDDASFETLTKNQNTLIEKDKEHDKLITANKTAIDANKASADTKFAATADAFTKNGNAITKNAKSITDLGTKVDGFDSRVTALDT
B12: no binding [14]; no binding [11]; no binding [7].

B13: recombinant UspA2^302-458 (other)
chain: IQDLATYNELQDQYAQKQTEAIDALNKASSENTQNIEDLAAYNELQDAYAKQQTEAIDALNKASSENTQNIEDLAAYNELQDAYAKQQAEAIDALNKASSENTQNIAKNQADIANNITNLYELAQQQDKHRSDIKTLAKTSAANTDRIAKNKADDDA
B13: no binding [7].

Reference: US20130129763A1 (ARNE FORSGREN, published 2013)
